Here are results for 108 variants from the RNAGym collection of RNA variant scans (doi:10.7554/elife.80360).

The chains are these.
B1: Twister Ribozyme (parent)
chain: AACACUGCCAAUGCCGGUCCCAAGCCCGGAUAAAAGUGGAGGGGGCGG

This data set covers variants of B1. The data set can be described thus: self-cleavage, relative activity (ratio to wild type); higher = more cleavage; co-transcriptional.
Regarding AACACUGCCACUGCCGGUCCCAAGCCCGGAUAAAAGUGGAGGGGGCGU, the self-cleavage is 1.06.
With UACACUGCUAAUGCCGGUCCCAAGCCCGGAUAAAAGUGGAGGGGGCGG the figure was 0.0321.
Next, AACACUGCCAAUGACGGUCCCAAGCCCGGAUAAAAAUGGAGGGGGCGG: 0.651; AACACUGCCAAUGUCGGUCCCACGCCCGGAUAAAAGUGGAGGGGGCGG: 0.51.
For the variant AACACAGCCAAUGCCGGACCCAAGCCCGGAUAAAAGUGGAGGGGGCGG, the self-cleavage was 0.174.
With AACACUGCCAAUGCCAGUCCCAAGCCCGGAUAAAAGUGGAGGCGGCGG the figure was 0.181; with AACACUGCCAAUGCCGGUACCAAGCCCGGAUAAAAGUGGGGGGGGCGG, 0.124.
Next, AACACUGCCAAUGCUGGUCCCAAGCCCGGAUAACAGUGGAGGGGGCGG: 0.205; AACACUGCCAAUGUCGGUCCCAAGCCCGGAUAAAAGUGGAGGGGGCGA: 1.1.
Regarding AACACUGCCAAUGCCGGUCCCAAGCGCGGAUAAAAGUGAAGGGGGCGG, the self-cleavage turned out to be 0.0939.
With AACACUGCCAAUGCCGGGCCCAAGCCCGGAUAAAAGUGGAGGGGGUGG the figure was 0.129.
For the variant AACACUGCCACUGCCGGUCCCAAGCCCGGAUAAAAGGGGAGGGGGCGG, the self-cleavage was 0.742.
Regarding AGCACUGCCAAUGGCGGUCCCAAGCCCGGAUAAAAGUGGAGGGGGCGG, the self-cleavage was 0.136.
On to AACACUGCCAAUGCCGGUCCCAAGCCUGGAUAAAAGUGAAGGGGGCGG, for which the self-cleavage was 0.253.
With AACACUGCCAAUGCCGGUCCCAAGCACGGAGAAAAGUGGAGGGGGCGG the figure was 0.691.
In the case of AACACUGCCAAUGCCGGUCCCCAGCCCAGAUAAAAGUGGAGGGGGCGG, the self-cleavage was found to be 0.862.
With AACACUGCCAAUGCCGGUCCCAAGCUCGGAUAAAAGUGGAGUGGGCGG, the self-cleavage amounted to 0.15.
Take AACACUGCAAAUGCCGGUCCCAAGCCCGGAUAAAACUGGAGGGGGCGG: the self-cleavage was determined as 0.107.
With AACACGGCCAAUGUCGGUCCCAAGCCCGGAUAAAAGUGGAGGGGGCGG the figure was 0.608; with AACACUGCCAAUGCCGGUGCCAAGCCCGGAUAAAAGUGGCGGGGGCGG, 0.132; with AACACUGCCAAUGCCGGUCCCAAACCCGGAUAAAAGUGGAGGGGGCCG, 0.11.
With AACACAGCCAAUGCCGGUCCCAAGCCCGGAUAAAAGUGGAGGGGGCGA the figure was 0.76.
AACACUGCCAAUGCCGGUCCCAAGCCCGGAUAAAAGUGGAGGGGGCAG: the self-cleavage was 0.952.
Consider AACACUGCCAAUGCCGGUCCCAAGCACGGAUAAAAGUGGAAGGGGCGG, for which the self-cleavage was found to be 0.101.
With AACACUGUAAAUGCCGGUCCCAAGCCCGGAUAAAAGUGGAGGGGGCGG the figure was 0.112.
With AACACUGCUAAUGCCGGUCCCAAGCCCGGAUAAACGUGGAGGGGGCGG the figure was 0.636; with AAAACUGCGAAUGCCGGUCCCAAGCCCGGAUAAAAGUGGAGGGGGCGG, 0.217; with AACACUCCCAAUGCCGGUCCCAUGCCCGGAUAAAAGUGGAGGGGGCGG, 0.0664.
Turning to AACAAUGCCAAUGCCGGUCCCAAGCCCGCAUAAAAGUGGAGGGGGCGG, the self-cleavage was found to be 0.279.
With AAAACUGCCAAUGCCGGUCCCAAGCCCGUAUAAAAGUGGAGGGGGCGG the figure was 0.231; with AACACUGCCAAUGCCGGUCCCAGGCCCGGAUAAAAGCGGAGGGGGCGG, 0.142.
Next, AACACUGCCAAUGCCGGUCACAAGCCCGGAUAAAAGUGGAGGAGGCGG: 0.118.
With AACACUGCCAAUGCCGGUCCAAAGUCCGGAUAAAAGUGGAGGGGGCGG the figure was 0.0609.
Consider AGCACUGCCAAUGCCGGUCCCAAGCCCGGAUAAAAUUGGAGGGGGCGG, for which the self-cleavage turned out to be 0.0889.
For the variant AACACUGCCAAUGGCGGUCCCAAGCCCGGAUAAAAGGGGAGGGGGCGG, the self-cleavage worked out at 0.0706.
For AACACUGCCAAUACCGGUCCCAAGCCCUGAUAAAAGUGGAGGGGGCGG, the self-cleavage was found to be 0.623.
With AACAUUGCCAAAGCCGGUCCCAAGCCCGGAUAAAAGUGGAGGGGGCGG the figure was 0.943; with AACACUGCCAAUGCCGGUCCCAAGCCCGGAUUAAAGUGGAGGGGGAGG, 0.873; with AACACUGCCAAUGCCGGUCCCAAGCCCGGAUAUCAGUGGAGGGGGCGG, 0.637.
As to AACACUGCCAAUGCGGGUCCCAAGCCCGGACAAAAGUGGAGGGGGCGG, the self-cleavage worked out at 0.108.
Next, AACACUGCCAAUGCCGGUCCCAAGCCCGGAUAAAAGUGCAGGGGGCGC: 0.161; AACACUGCCAAUGCCGGUCCUAAGGCCGGAUAAAAGUGGAGGGGGCGG: 0.0992.
As for AACACCGCCAAUGCCGAUCCCAAGCCCGGAUAAAAGUGGAGGGGGCGG, the self-cleavage came out at 0.0938.
For AACUGUGCCAAUGCCGGUCCCAAGCCCGGAUAAAAGUGGAGGGGGCGG, the self-cleavage was determined as 0.0771.
For AACACUGCCAAUGCCGGUCCCAAGCCCGGAUAACAGUAGAGGGGGCGG, the self-cleavage was 0.232.
In the case of AAUACUGACAAUGCCGGUCCCAAGCCCGGAUAAAAGUGGAGGGGGCGG, the self-cleavage came out at 0.17.
In the case of AACACUGCCAAUGCCGGUCCCAAGCCCGGAUAAAUGUGGAAGGGGCGG, the self-cleavage amounted to 0.678.
With AACACUGCCAAUGCCGGUCCCAAGCCCGGAGAAAGGUGGAGGGGGCGG the figure was 0.682; with AUCACUGCCAAUGCCGGUCCCAAGCCCGGAUAAAAUUGGAGGGGGCGG, 0.113.
Consider AUCACUGCCAAUGCCGGUCCCAAGCCCGGAUAAAAAUGGAGGGGGCGG, for which the self-cleavage is 0.158.
With AACACUGCCAAUGCCGGUCCCAAGCCCGAAUACAAGUGGAGGGGGCGG the figure was 0.768; with AACCCUGCCAAUGCCGGUCCCAAGCCCCGAUAAAAGUGGAGGGGGCGG, 0.0895.
In the case of AACCCUGCCAAUGCCGGUCCCAAGCCCUGAUAAAAGUGGAGGGGGCGG, the self-cleavage was found to be 0.104.
Next, AACACUGCCAACGCCGGUCCCAAGCCCGAAUAAAAGUGGAGGGGGCGG: 0.988.
AACACUGCCAAAGCCGGUCCCAAGCCCGGAUAAAAGUGGAGGGUGCGG: the self-cleavage was determined as 1.05.
Turning to AACACUGCCAAUGCCGGUCCCAAGGCCGGAUAAAAGUGGACGGGGCGG, the self-cleavage was 0.133.
Next, AACACGGCCAAUGCCGGUCCCAAGCCCGGAUAAAAGUGGAGUGGGCGG: 0.0829.
In the case of GACACUUCCAAUGCCGGUCCCAAGCCCGGAUAAAAGUGGAGGGGGCGG, the self-cleavage came out at 0.137.
Consider AACACUGCCAAUGCCGGUCCCAAGCUCGGAUAAAAGUGGAGGGCGCGG, for which the self-cleavage is 0.172.
As for AACACUGCCAAUGCCGGCCCAAAGCCCGGAUAAAAGUGGAGGGGGCGG, the self-cleavage was determined as 0.0881.
With AACCCUGCCACUGCCGGUCCCAAGCCCGGAUAAAAGUGGAGGGGGCGG the figure was 0.0104; with AACACUGCCGAUGCCGGUCCCAAGCCCGGAUAAAAGUGGAGGGGCCGG, 0.639; with AACACUGCCAAUGCCGGUCCCAAGCCCGGAUAAAGGUGGAGUGGGCGG, 0.133.
Next, AACACUGCCAAGGCCGGUCCCAAGCCGGGAUAAAAGUGGAGGGGGCGG: 0.136.
Next, AACACUGCCAAUGCCGGGCCCAAGCCCGGAUAAAAGGGGAGGGGGCGG: 0.0758.
As to AACACUGCCAAUGCCGGUCCCAAGCCCGGAUAACAGUGGAGAGGGCGG, the self-cleavage amounted to 0.143.
Take AACACUGCCAAUCCCGGUCCCAAGCCCGGAUAAAAGUUGAGGGGGCGG: the self-cleavage was 0.158.
With AACACUGCCAAUGCCGGUCCCAAGCCCGUUUAAAAGUGGAGGGGGCGG the figure was 0.912; with AACACUGCCAAUGCCUGUCCCAAGCCCGGCUAAAAGUGGAGGGGGCGG, 0.804.
Take AACACUACCAAUGCCGGUCCCAAGCCCGGAUAAAAGUCGAGGGGGCGG: the self-cleavage turned out to be 0.348.
With AACACUGCAAAUGCCGGUCCCAAGCCCGGAUAGAAGUGGAGGGGGCGG the figure was 0.522; with AACACUGCCAAUGCCGGUACCAAGUCCGGAUAAAAGUGGAGGGGGCGG, 0.0834.
AACACGGCCAAUGCCGGUCCCAAGCCCGGAUAACAGUGGAGGGGGCGG: the self-cleavage came out at 0.539.
For AACACUGCCAAUGCCGGUCCCAAGCCCGUAUAAAAGUGGAAGGGGCGG, the self-cleavage stood at 0.422.
With CACACUGCCAAUGCCGGUGCCAAGCCCGGAUAAAAGUGGAGGGGGCGG the figure was 0.187; with AACACUGCCAAUGCCGGUCCCAAGCCCGGAUAACAGUGGAGGGGGUGG, 0.251; with AACACUGCCAAUGCCGGUCCCAAGGCCGGAUAAAAGUGGAGGGGGCGA, 0.193.
With AACACUGCCAAUGGCGGUCCCAACCCCGGAUAAAAGUGGAGGGGGCGG the figure was 0.0845; with AACACUCCCAAUGCCGGUCCCAAACCCGGAUAAAAGUGGAGGGGGCGG, 0.0629; with AACACUGCCAAUGCCGGUCCCAGGCGCGGAUAAAAGUGGAGGGGGCGG, 0.107.
With AACACUGCCAAAGCCGGUCCCAAGCCCGGAUAAAAGUGGAGGGGGGGG, the self-cleavage stood at 1.12.
Take AACACUGCCAAUGCCGGUCCCAAGCCCGGAUAAAAGUGGAACGGGCGG: the self-cleavage is 0.094.
Next, AAAACUGACAAUGCCGGUCCCAAGCCCGGAUAAAAGUGGAGGGGGCGG: 0.116.
On to AACACUGCCAAUGCCGGUCCCAAGCCCGGAUAAAAGCGGAGGGGGCUG, for which the self-cleavage was found to be 0.585.
With AACACUGCCAAUGCCGGUCCCAAGCUCGGAUAAUAGUGGAGGGGGCGG the figure was 0.124; with AACACUGCCGAUGCCGGUCCCAAGCUCGGAUAAAAGUGGAGGGGGCGG, 0.285; with AACACUGCCAAUGCCGGUCCGAGGCCCGGAUAAAAGUGGAGGGGGCGG, 0.11.
With AACACUGCCAAUGACGGUCCCCAGCCCGGAUAAAAGUGGAGGGGGCGG the figure was 1.09; with AACACUGCCAAUGCCGGUCCCAAGCCAGGAUAAAAGUGGAGUGGGCGG, 0.113; with AACACUGCCAAUGCCGGUCCCAAGCCCGGGUAAAAGUGGUGGGGGCGG, 0.0959.
Regarding AACACUGCCUAUGCCGGUCCCAAGCCUGGAUAAAAGUGGAGGGGGCGG, the self-cleavage was determined as 0.93.
On to AACACUGCCAAUGCCGCUCCCAAGCCCGGAUAAAAGUGGAGGGGGAGG, for which the self-cleavage amounted to 0.107.
For the variant AACACUGCCAAUGCCGGUCCCAAGCCCGGAUAAAAGUGGAGGGUUCGG, the self-cleavage was determined as 0.922.
Take AGCACUGCCAAUGCCGGUCCCUAGCCCGGAUAAAAGUGGAGGGGGCGG: the self-cleavage came out at 0.133.
With AACACUGCCAAUGCCGGAUCCAAGCCCGGAUAAAAGUGGAGGGGGCGG the figure was 0.266.
AACACUGCCAAUGCCGGUCCCAAGCCCGGAUAACAGUGGAGGCGGCGG: the self-cleavage is 0.103.
With AACACUGCCAAUGCCGGUCCGAAGCCCGGAUAAAAGUGGAGGGGGCGA the figure was 0.146.
With ACCAGUGCCAAUGCCGGUCCCAAGCCCGGAUAAAAGUGGAGGGGGCGG the figure was 0.0784; with AACACUGCCAAUGCCGGUCCCAAGCCCGGCUAAAAAUGGAGGGGGCGG, 0.164; with AACACUGCCAAUGCCGGUCCCAAGACCGGAUAAAAGUGAAGGGGGCGG, 0.0801.
With AACACUGCCAAUGCCGGUCACAAGCCCGGAUAAUAGUGGAGGGGGCGG the figure was 0.0698.
Take AACACUGCCAAUGCGGGUCCCAAGGCCGGAUAAAAGUGGAGGGGGCGG: the self-cleavage amounted to 0.0786.
Next, AACACUGCCAAUGCCGGUCCCAAGCCCGGAUAAAACUGGAGGGGGUGG: 0.585.
Next, AACACUGCCAAUGCCGGUCCCAACCCCGGAUAAACGUGGAGGGGGCGG: 0.0752; AACACUGCCAAUGCCGGUCCCAAGCCCGGAUAAAAGUGGAGGGGAAGG: 0.714; AACUCUGCCAAUGCCGGUCCCAAGCCCGGAUAAAAGUGGAGGGGUCGG: 0.124.
As for AACACUGCCAAUGGCGGUCCUAAGCCCGGAUAAAAGUGGAGGGGGCGG, the self-cleavage was determined as 0.0834.
Next, AACACUGCCAAUGCCGGUCCCAAGCCCUGAUAAAAGUGGAGGGGGCCG: 0.287.
